In article PMC4650670 (Scientific Reports, 2015) one finds Kd data, which are given here for one molecule.

The target in this assay is human cytoskeletal actin, filamentous (F-actin; β- and γ-actins) (human, UniProt P60709 1-375; P63261 1-375). The assay can be described thus: ITC. The note with it: both partners purified.

B1: VopV_(rep1) (residues 361-428 of the type III secretion effector VopV) (domain or fragment)
chain: WPEVKPAHRLITTSGNAKIDGNPGYRNARVDVDGQTVGYTRNERGGSQPQSSGVHTLQGSQQPSVEPS
The term Kd denotes a measure of binding affinity in units of concentration. High values mean lower affinity, low ones higher affinity. For the molecule B1, the Kd was 54.4 nM.
